From patent US9512196B2, “Short-form human MD-2 as a negative regulator of toll-like receptor 4 signaling” (Cedars-Sinai Medical Center, priority 2008, dated 2016)

T1: MD-2 (Homo sapiens, UniProt Q9Y6Y9)
T1 construct: expressed in transfected cells; host or cells: HEK293
T1 sequence (Q9Y6Y9 19-160): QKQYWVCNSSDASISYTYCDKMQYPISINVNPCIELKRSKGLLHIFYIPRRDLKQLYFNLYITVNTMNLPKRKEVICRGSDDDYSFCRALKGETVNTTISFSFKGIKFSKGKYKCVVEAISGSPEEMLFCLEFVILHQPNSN

B1: MD-2s: alternatively spliced isoform of human MD-2 lacking exon 2, with D38G substitution; expressed and secreted protein sequences in Table 1 (protein, listed as Homo sapiens)
chain 1: MLPFLFFSTLFSSIFTEAQKQYWVCNSSDASISYTYCGRDLKQLYFNLYITVNTMNLPKRKEVICRGSDDDYSFCRALKGETVNTTISFSFKGIKFSKGKYKCVVEAISGSPEEMLFCLEFVILHQPNSN
chain 2: EAQKQYWVCNSSDASISYTYCGRDLKQLYFNLYITVNTMNLPKRKEVICRGSDDDYSFCRALKGETVNTTISFSFKGIKFSKGKYKCVVEAISGSPEEMLFCLEFVILHQPNSN

How the values were obtained:
MD-2 = biological target: T1, MD-2; experiment: Co-immunoprecipitation with Flag-tagged wild-type MD-2 in HEK293 cells; format: binding; settings: Myc-tagged protein with Flag-tagged MD-2, co-immunoprecipitation
Description: (A) HEK293 cells were transiently transfected with plasmids encoding for Flag-tagged MD-2 (lanes 1-4) in combination with either a Myc-tagged MD-2 (lanes 1 and 3) or a Myc-tagged MD-2s (lanes 2 and 4) expressing plasmid. Co-immunoprecipitation experiments were then performed using an anti-Flag antibody (lanes 3-4) or an IgG isotype control antibody (lane 1-2). Samples were fractionated by SDS-PAGE and immunoblotting with an anti-Myc antibody was performed. (B) Structural analysis of MD-2. Structural features representing the TLR4 binding sites (red); the ligand contacts (dark blue); the ligand binding pocket (light blue) and the TLR4 secondary contacts (pink) are illustrated. The residues deleted in MD-2s (yellow) are also shown. (C) HEK293 cells were transiently transfected with plasmids encoding for Myc-tagged MD-2 (lanes 3 and 4) or a Myc-tagged MD-2s (lanes 5 and 6) expressing plasmid and treated with LPS-biotin as indicated. Co-immunoprecipitation experiments were then performed using an anti-Myc antibody. […]
HEK 293 cells were seeded into 100 mm dishes (1.5×10^6) 24 h prior to transfection. […] For immunoblotting, primary antibodies were detected using horseradish peroxidase-conjugated secondary antibodies, followed by enhanced chemiluminescence (Amersham Biosciences). […]

[1] = Biotin-LPS binding, immunoprecipitation from culture supernatants; settings: culture supernatants incubated with biotin-LPS, anti-Myc immunoprecipitation
Description: (A) HEK293 cells were transiently transfected with plasmids encoding for Flag-tagged MD-2 (lanes 1-4) in combination with either a Myc-tagged MD-2 (lanes 1 and 3) or a Myc-tagged MD-2s (lanes 2 and 4) expressing plasmid. Co-immunoprecipitation experiments were then performed using an anti-Flag antibody (lanes 3-4) or an IgG isotype control antibody (lane 1-2). Samples were fractionated by SDS-PAGE and immunoblotting with an anti-Myc antibody was performed. (B) Structural analysis of MD-2. Structural features representing the TLR4 binding sites (red); the ligand contacts (dark blue); the ligand binding pocket (light blue) and the TLR4 secondary contacts (pink) are illustrated. The residues deleted in MD-2s (yellow) are also shown. (C) HEK293 cells were transiently transfected with plasmids encoding for Myc-tagged MD-2 (lanes 3 and 4) or a Myc-tagged MD-2s (lanes 5 and 6) expressing plasmid and treated with LPS-biotin as indicated. Co-immunoprecipitation experiments were then performed using an anti-Myc antibody. Samples were fractionated by SDS-PAGE and immunoblotting with an anti-biotin (upper panel) and anti-Myc antibody (lower panel) were performed.
To address this possibility, HEK293 cells were transiently transfected with plasmids encoding either MD-2 or MD-2s. Culture supernatants were then incubated with biotin-LPS and Myc-tagged proteins were immunoprecipitated.

| Molecule | Interaction with wild-type MD-2 (MD-2) | Binding of secreted protein to LPS [1] |
| --- | --- | --- |
| MD-2: full-length human wild-type MD-2, co-receptor of TLR4 [reference compound] | can homodimerise | bound readily to LPS |
| B1 | associates with wild-type MD-2 | interaction between secreted MD-2s and LPS was also detected |
